{"source": "paper PMC4409540", "about": "(Nature, 2015)", "proteins": {"B1": {"name": "MBP-tagged human TRPA1 (full-length) (natural protein, UniProt O75762 1-1119, looked up)", "chain": "MKRSLRKMWRPGEKKEPQGVVYEDVPDDTEDFKESLKVVFEGSAYGLQNFNKQKKLKRCDDMDTFFLHYAAAEGQIELMEKITRDSSLEVLHEMDDYGNTPLHCAVEKNQIESVKFLLSRGANPNLRNFNMMAPLHIAVQGMNNEVMKVLLEHRTIDVNLEGENGNTAVIIACTTNNSEALQILLKKGAKPCKSNKWGCFPIHQAAFSGSKECMEIILRFGEEHGYSRQLHINFMNNGKATPLHLAVQNGDLEMIKMCLDNGAQIDPVEKGRCTAIHFAATQGATEIVKLMISSYSGSVDIVNTTDGCHETMLHRASLFDHHELADYLISVGADINKIDSEGRSPLILATASASWNIVNLLLSKGAQVDIKDNFGRNFLHLTVQQPYGLKNLRPEFMQMQQIKELVMDEDNDGCTPLHYACRQGGPGSVNNLLGFNVSIHSKSKDKKSPLHFAASYGRINTCQRLLQDISDTRLLNEGDLHGMTPLHLAAKNGHDKVVQLLLKKGALFLSDHNGWTALHHASMGGYTQTMKVILDTNLKCTDRLDEDGNTALHFAAREGHAKAVALLLSHNADIVLNKQQASFLHLALHNKRKEVVLTIIRSKRWDECLKIFSHNSPGNKCPITEMIEYLPECMKVLLDFCMLHSTEDKSCRDYYIEYNFKYLQCPLEFTKKTPTQDVIYEPLTALNAMVQNNRIELLNHPVCKEYLLMKWLAYGFRAHMMNLGSYCLGLIPMTILVVNIKPGMAFNSTGIINETSDHSEILDTTNSYLIKTCMILVFLSSIFGYCKEAGQIFQQKRNYFMDISNVLEWIIYTTGIIFVLPLFVEIPAHLQWQCGAIAVYFYWMNFLLYLQRFENCGIFIVMLEVILKTLLRSTVVFIFLLLAFGLSFYILLNLQDPFSSPLLSIIQTFSMMLGDINYRESFLEPYLRNELAHPVLSFAQLVSFTIFVPIVLMNLLIGLAVGDIAEVQKHASLKRIAMQVELHTSLEKKLPLWFLRKVDQKSTIVYPNKPRSGGMLFHIFCFLFCTGEIRQEIPNADKSLEMEILKQKYRLKDLTFLLEKQHELIKLIIQKMEIISETEDDDSHCSFQDRFKKEQMEQRNSRWNTVLRAVKAKTHHLEP"}}, "target": "the molecule itself", "test": "cryo-EM structure"}
{"protein": "B1", "values": [{"measurement": "stoichiometry N", "value": 4}]}
